# Measured values reported in the Immune Epitope Database (IEDB).
# Assays:
# HLA-A*03:01 = test: IEDB peptide-MHC binding, purified MHC/competitive/fluorescence; filed as Kd, often an IC50 or EC50 that approximates it; ≥ and ≤ were set here for values at or beyond the usual limits of such assays
# HLA-B*27:03 = test: as above
# HLA-A*02:11 = test: as above; settings: source organism: Vibrio cholerae 2740-80
# HLA-A*68:02 [1] = test: as above; settings: source organism: Vibrio cholerae 2740-80
# HLA-A*26:01 = test: as above
# HLA-A*29:02 = test: as above; settings: source organism: Vibrio cholerae 2740-80
# HLA-B*18:01 = test: as above; settings: source organism: Vibrio cholerae 2740-80
# HLA-A*69:01 = test: as above; settings: source organism: Vibrio cholerae 2740-80
# HLA-A*02:12 = test: as above; settings: source organism: Vibrio cholerae 2740-80
# HLA-B*39:01 = test: as above; settings: source organism: Vibrio cholerae 2740-80
# HLA-B*46:01 = test: as above
# HLA-A*02:19 = test: as above; settings: source organism: Vibrio cholerae 2740-80
# HLA-B*15:01 = test: as above; settings: source organism: Vibrio cholerae 2740-80
# HLA-B*57:01 = test: as above
# HLA-A*02:01 [2] = test: as above
# HLA-A*02:16 = test: as above; settings: source organism: Vibrio cholerae 2740-80
# HLA-B*51:01 = test: as above; settings: source organism: Vibrio cholerae 2740-80
# HLA-A*02:03 [3] = test: as above; settings: source organism: Vibrio cholerae 2740-80
# HLA-B*58:01 = test: as above; settings: source organism: Human herpesvirus 4 strain B95-8
# HLA-A*23:01 = test: as above; settings: source organism: Human herpesvirus 4 strain B95-8
# HLA-B*83:01 = test: as above
# HLA-A*32:15 = test: as above
# HLA-B*15:42 = test: as above
# HLA-B*45:06 = test: as above
# HLA-C*12:03 = test: IEDB peptide-MHC binding, purified MHC/direct/fluorescence; filed as Kd, often an IC50 or EC50 that approximates it; ≥ and ≤ were set here for values at or beyond the usual limits of such assays; settings: source organism: Homo sapiens
# HLA-A*68:23 = test: IEDB peptide-MHC binding, purified MHC/competitive/fluorescence; filed as Kd, often an IC50 or EC50 that approximates it; ≥ and ≤ were set here for values at or beyond the usual limits of such assays; settings: source organism: human gammaherpesvirus 4
# HLA-A*02:01 [4] = test: IEDB peptide-MHC binding, purified MHC/direct/fluorescence; filed as Kd, often an IC50 or EC50 that approximates it; ≥ and ≤ were set here for values at or beyond the usual limits of such assays; settings: source organism: Human herpesvirus 4 strain B95-8
# HLA-A*02:17 = test: IEDB peptide-MHC binding, purified MHC/competitive/radioactivity; filed as Kd, often an IC50 or EC50 that approximates it; ≥ and ≤ were set here for values at or beyond the usual limits of such assays; settings: source organism: Dengue virus 2 Jamaica/1409/1983
# HLA-A*68:02 [5] = test: as above; settings: source organism: Dengue virus 2 Jamaica/1409/1983
# HLA-A*02:06 = test: as above; settings: source organism: Dengue virus 2 Jamaica/1409/1983
# HLA-A*02:01 [6] = test: as above; settings: source organism: Dengue virus 2 Jamaica/1409/1983
# HLA-A*02:03 [7] = test: as above; settings: source organism: Dengue virus 2 Jamaica/1409/1983
# HLA-C*14:02 = test: IEDB peptide-MHC binding, purified MHC/direct/fluorescence; filed as Kd, often an IC50 or EC50 that approximates it; ≥ and ≤ were set here for values at or beyond the usual limits of such assays; settings: source organism: dengue virus type 1
# HLA-C*06:02 = test: as above; settings: source organism: dengue virus type 1
# HLA-C*05:01 = test: as above; settings: source organism: dengue virus type 1
# HLA-C*08:02 = test: as above; settings: source organism: dengue virus type 1
# [8] = source organism: Vibrio cholerae 2740-80
# [9] = source organism: human gammaherpesvirus 4
# [10] = source organism: dengue virus type 1
sequence,measurement,setting,value
CERYGFPAS,Kd,HLA-A*03:01; [8],≥ 20 µM
same,Kd,HLA-B*27:03; [8],≥ 20 µM
same,Kd,HLA-A*02:11,≥ 20 µM
same,Kd,HLA-A*68:02 [1],≥ 20 µM
same,Kd,HLA-A*26:01; [8],≥ 20 µM
same,Kd,HLA-A*29:02,≥ 20 µM
same,Kd,HLA-B*18:01,0.0433 µM
same,Kd,HLA-A*69:01,≥ 20 µM
same,Kd,HLA-A*02:12,≥ 20 µM
same,Kd,HLA-B*39:01,≥ 20 µM
same,Kd,HLA-B*46:01; [8],≥ 20 µM
same,Kd,HLA-A*02:19,≥ 20 µM
same,Kd,HLA-B*15:01,≥ 20 µM
same,Kd,HLA-B*57:01; [8],≥ 20 µM
same,Kd,HLA-A*02:01 [2]; [8],≥ 20 µM
same,Kd,HLA-A*02:16,≥ 20 µM
same,Kd,HLA-B*51:01,≥ 20 µM
same,Kd,HLA-A*02:03 [3],≥ 20 µM
VSFIEFVGW,Kd,HLA-B*58:01,0.0011 µM
same,Kd,HLA-B*57:01; source organism: Human herpesvirus 4 strain B95-8,0.0249 µM
same,Kd,HLA-A*23:01,0.0629 µM
FLNPVIYTF,Kd,HLA-A*03:01; source organism: Homo sapiens,≥ 20 µM
same,Kd,HLA-B*83:01; source organism: Homo sapiens,0.24 µM
same,Kd,HLA-A*32:15; source organism: Homo sapiens,0.024 µM
same,Kd,HLA-B*27:03; source organism: Homo sapiens,≥ 20 µM
same,Kd,HLA-A*26:01; source organism: Homo sapiens,≥ 20 µM
same,Kd,HLA-B*15:42; source organism: Homo sapiens,≥ 5 µM
same,Kd,HLA-A*02:01 [2]; source organism: Homo sapiens,0.0016 µM
same,Kd,HLA-B*45:06; source organism: Homo sapiens,≥ 5 µM
same,Kd,HLA-C*12:03,0.029 µM
EVFFGLSRY,Kd,HLA-B*83:01; [9],≥ 5 µM
same,Kd,HLA-A*32:15; [9],0.0269 µM
same,Kd,HLA-A*68:23,≤ 0.0001 µM
same,Kd,HLA-B*15:42; [9],≥ 5 µM
same,Kd,HLA-B*45:06; [9],≥ 5 µM
same,Kd,HLA-A*02:01 [4],≥ 10 µM
FTMRLLSPV,Kd,HLA-B*83:01; [10],≥ 5 µM
same,Kd,HLA-A*32:15; [10],0.116 µM
same,Kd,HLA-B*15:42; [10],≥ 5 µM
same,Kd,HLA-B*46:01; [10],0.015 µM
same,Kd,HLA-B*45:06; [10],≥ 5 µM
same,Kd,HLA-A*02:17,0.0298 µM
same,Kd,HLA-A*68:02 [5],0.00078 µM
same,Kd,HLA-A*02:06,0.00432 µM
same,Kd,HLA-A*02:01 [6],0.00156 µM
same,Kd,HLA-A*02:03 [7],0.00344 µM
same,Kd,HLA-C*14:02,0.098 µM
same,Kd,HLA-C*06:02,≥ 20 µM
same,Kd,HLA-C*05:01,2.29 µM
same,Kd,HLA-C*08:02,0.316 µM
